# Results as given in paper PMC12584684, “A minimal SufB2C2 complex functions as a [4Fe-4S] cluster scaffold in methanogenic archaea” (Microbiology Spectrum, 2025).
# Columns and labels:
# [1] = target: His6-tagged Methanothermococcus thermolithotrophicus SufB (Methanothermococcus thermolithotrophicus); assay: SEC; Superdex 200 10/300 GL, 50 mM sodium HEPES, 200 mM NaCl, 5 mM MgCl2, pH 7.5; samples pretreated with 10 mM EDTA and 10 mM DTH overnight; calibrated with standards of 29-700 kDa; fractions on SDS-PAGE
# [2] = target: His6-tagged Methanothermococcus thermolithotrophicus SufC (Methanothermococcus thermolithotrophicus); assay: as above
# MMP SufB2C2 = target: T1, MMP SufB2C2 (Methanococcus maripaludis, UniProt Q6LY25); assay: iron quantification, UV-visible and EPR spectroscopy, as purified; type: binding; conditions: anoxic purification from native host; EPR at 10 K after 5 mM dithionite
# T1 construct: gene MMP1168; sufCB operon, N-terminal Strep-tag on SufC, expressed in M. maripaludis S0001 and purified anoxically; SufB2C2 heterotetramer; with Fe-S cluster assembly protein SufB
# T1 sequence (Q6LY25 1-248): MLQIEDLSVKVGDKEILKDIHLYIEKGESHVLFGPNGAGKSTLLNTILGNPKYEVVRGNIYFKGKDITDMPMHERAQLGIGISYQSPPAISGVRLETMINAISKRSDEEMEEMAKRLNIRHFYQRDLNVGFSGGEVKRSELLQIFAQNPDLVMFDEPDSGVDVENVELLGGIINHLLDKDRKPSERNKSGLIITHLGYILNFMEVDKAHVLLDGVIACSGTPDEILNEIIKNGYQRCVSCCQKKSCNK
# T1 sequence (Q6LY24 1-418 partner): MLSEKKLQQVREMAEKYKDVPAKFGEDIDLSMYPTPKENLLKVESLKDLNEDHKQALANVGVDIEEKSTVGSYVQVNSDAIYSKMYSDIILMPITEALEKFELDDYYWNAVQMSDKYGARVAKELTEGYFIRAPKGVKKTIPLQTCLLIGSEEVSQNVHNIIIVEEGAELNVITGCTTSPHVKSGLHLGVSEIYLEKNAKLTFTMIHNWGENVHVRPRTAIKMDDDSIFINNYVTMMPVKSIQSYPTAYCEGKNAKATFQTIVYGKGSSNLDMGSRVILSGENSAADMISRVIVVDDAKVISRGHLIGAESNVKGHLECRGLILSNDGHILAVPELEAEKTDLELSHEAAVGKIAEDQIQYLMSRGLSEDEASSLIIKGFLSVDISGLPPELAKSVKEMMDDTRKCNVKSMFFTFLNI
# [3] = target: His6-tagged Methanothermococcus thermolithotrophicus SufC (Methanothermococcus thermolithotrophicus)
# [4] = target: His6-tagged Methanothermococcus thermolithotrophicus SufC (Methanothermococcus thermolithotrophicus); remark: listed apart in the source
# MTH SufC = test system: T2, MTH SufC; assay: malachite green Pi release ATPase assay; type: biochemical, Methanothermococcus thermolithotrophicus; conditions: 60°C, pH 7.5, 5 mM MgCl2, 0-2 mM ATP, holo-form, anoxic
# T2 construct: pET15b N-terminal His6-tag, E. coli Rosetta 2(DE3), anoxic Ni-NTA; monomer 30 kDa, dimer by SEC
# Description: malachite green Pi release ATPase assay on MTH SufC | kinetic parameters (Vmax, Km, kcat, and catalytic efficiency) for holo-forms of MTH SufC and SufB2C2
# MTH SufB2C2 = test system: T3, MTH SufB2C2; assay: malachite green Pi release ATPase assay; type: biochemical, Methanothermococcus thermolithotrophicus; conditions: 60°C, pH 7.5, 5 mM MgCl2, 0-2 mM ATP, holo-form, anoxic
# T3 construct: gene sufC; N-terminal His6-SufC co-expressed with untagged SufB in E. coli Rosetta 2(DE3); SufB2C2 heterotetramer, ~156 kDa by SEC; with Fe-S cluster assembly protein SufB
# Description: malachite green Pi release ATPase assay on MTH SufB2C2 | kinetic parameters (Vmax, Km, kcat, and catalytic efficiency) for holo-forms of MTH SufC and SufB2C2
compound,measurement,setting,value
His6-tagged Methanothermococcus thermolithotrophicus SufB (natural protein),stoichiometry N,[1],2
His6-tagged Methanothermococcus thermolithotrophicus SufC (natural protein),stoichiometry N,[2],2
[S]12[Fe]3[S]4[Fe]1[S]1[Fe]2[S]3[Fe]41 [[4Fe-4S] cluster],Fe atoms per protomer,MMP SufB2C2,1.6 ± 0.3 Fe per protomer
untagged Methanothermococcus thermolithotrophicus SufB (natural protein),ATPase activity (malachite green) of the MTH SufB2C2 complex against MTH SufC alone at 60°C,[3],7 fold
same,"activation of apo-AcnB (Fe-S cluster transfer, aconitase activity) by the MTH SufB2C2 complex against MTH SufC alone",[4],2 fold
Nc1ncnc2c1ncn2[C@@H]1O[C@H](COP(=O)(O)OP(=O)(O)OP(=O)(O)O)[C@@H](O)[C@H]1O [ATP],Km,MTH SufC,1900 ± 800 µM
same,Km,MTH SufB2C2,2600 ± 700 µM
